Measurements: the supplement of paper PMC9112550, “Optimization of the antimicrobial peptide Bac7 by deep mutational scanning” (BMC Biology, 2022)

Tested on: Escherichia coli TOP10
Assay: shrunken log2 fold change of peptide-encoding DNA abundance (4.5 h post-induction vs induction); higher = less antimicrobial activity (less host growth inhibition)
Details: time post-induction: 4.5 h; library: site-saturation at positions 5, 18, 19, 20
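Also: peptides expressed intracellularly from a pBAD plasmid library in pooled LB shake-flask culture, induced with 0.3% L-arabinose, DNA abundance read by NGS, three biological replicates, DESeq2 with apeglm shrinkage.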

Row | Sequence | shrunken log2 fold change
1 | RRIRKRPPRLPRPRPRPMDSPRP | -0.0874
2 | RRIRGRPPRLPRPRPRPPCDPRP | 0.734
3 | RRIRERPPRLPRPRPRPMPAPRP | -0.0153
4 | RRIRTRPPRLPRPRPRPKRVPRP | -0.0636
5 | RRIRARPPRLPRPRPRPDRPPRP | 0.448
6 | RRIRQRPPRLPRPRPRPIQQPRP | -0.039
7 | RRIRRRPPRLPRPRPRPRWEPRP | 0.0983
8 | RRIRCRPPRLPRPRPRPGRWPRP | 0.434
9 | RRIRERPPRLPRPRPRPMFAPRP | 0.0495
10 | RRIRLRPPRLPRPRPRPNTGPRP | -0.359
11 | RRIRERPPRLPRPRPRPSQYPRP | -0.113
12 | RRIRMRPPRLPRPRPRPQHQPRP | 0.214
13 | RRIRRRPPRLPRPRPRPKEKPRP | -0.00936
14 | RRIRIRPPRLPRPRPRPLKNPRP | -0.202
15 | RRIRVRPPRLPRPRPRPREPPRP | 0.947
16 | RRIRIRPPRLPRPRPRPTQNPRP | 0.19
17 | RRIRERPPRLPRPRPRPLRIPRP | -0.277
18 | RRIRPRPPRLPRPRPRPQPFPRP | -0.149
19 | RRIRFRPPRLPRPRPRPLCGPRP | -0.154
20 | RRIRNRPPRLPRPRPRPCEFPRP | -0.398
21 | RRIRYRPPRLPRPRPRPQNEPRP | -0.483
22 | RRIRKRPPRLPRPRPRPEHYPRP | 0.0532
23 | RRIRPRPPRLPRPRPRPVMQPRP | 0.136

Row | Sequence | shrunken log2 fold change
24 | RRIRQRPPRLPRPRPRPNLIPRP | -0.556
25 | RRIRHRPPRLPRPRPRPEYWPRP | -0.0523
26 | RRIRVRPPRLPRPRPRPPFHPRP | 0.0102
27 | RRIRPRPPRLPRPRPRPLPTPRP | 0.42
28 | RRIRTRPPRLPRPRPRPAMQPRP | -0.00933
29 | RRIRPRPPRLPRPRPRPPNNPRP | 0.414
30 | RRIRPRPPRLPRPRPRPHFHPRP | -0.191
31 | RRIRSRPPRLPRPRPRPRMNPRP | 0.079
32 | RRIRSRPPRLPRPRPRPATGPRP | 0.156
33 | RRIRSRPPRLPRPRPRPSGFPRP | 0.0519
34 | RRIRERPPRLPRPRPRPHHGPRP | -0.43
35 | RRIRCRPPRLPRPRPRPTCMPRP | 0.173
36 | RRIRIRPPRLPRPRPRPWPCPRP | -0.0182
37 | RRIRTRPPRLPRPRPRPPCAPRP | 0.308
38 | RRIRPRPPRLPRPRPRPNGVPRP | -0.0233
39 | RRIRTRPPRLPRPRPRPNHSPRP | -0.925
40 | RRIRSRPPRLPRPRPRPSMGPRP | -0.0521
41 | RRIRTRPPRLPRPRPRPGQVPRP | -0.0192
42 | RRIRNRPPRLPRPRPRPSPIPRP | -0.561
43 | RRIRSRPPRLPRPRPRPAEKPRP | 0.0409
44 | RRIRYRPPRLPRPRPRPRDNPRP | -0.712
45 | RRIRLRPPRLPRPRPRPSADPRP | 0.07
46 | RRIRARPPRLPRPRPRPDQFPRP | 0.389

Row | Sequence | shrunken log2 fold change
47 | RRIRERPPRLPRPRPRPKVEPRP | -0.0672
48 | RRIRNRPPRLPRPRPRPRKMPRP | 0.263
49 | RRIRNRPPRLPRPRPRPDHDPRP | -0.224
50 | RRIRDRPPRLPRPRPRPYRCPRP | -0.0315
51 | RRIRHRPPRLPRPRPRPQHSPRP | -0.376
52 | RRIRQRPPRLPRPRPRPAYFPRP | 0.191
53 | RRIRSRPPRLPRPRPRPVQQPRP | -0.00468
54 | RRIRFRPPRLPRPRPRPPFPPRP | 0.454
55 | RRIRGRPPRLPRPRPRPSLAPRP | 1.09
56 | RRIRWRPPRLPRPRPRPIAHPRP | -0.074
57 | RRIRTRPPRLPRPRPRPLCMPRP | -0.385
58 | RRIRKRPPRLPRPRPRPGHCPRP | 0.00694
59 | RRIRYRPPRLPRPRPRPVNQPRP | -0.058
60 | RRIRCRPPRLPRPRPRPFQQPRP | -0.00107
61 | RRIRPRPPRLPRPRPRPIAFPRP | -0.00102
62 | RRIRHRPPRLPRPRPRPYPIPRP | -0.887
63 | RRIRDRPPRLPRPRPRPQGQPRP | 0.000653
64 | RRIRARPPRLPRPRPRPQYMPRP | -0.112
65 | RRIRYRPPRLPRPRPRPHAPPRP | -0.0159
66 | RRIRSRPPRLPRPRPRPTVFPRP | 0.222
67 | RRIRDRPPRLPRPRPRPFARPRP | 0.579
68 | RRIRMRPPRLPRPRPRPASYPRP | 0.0757
69 | RRIRDRPPRLPRPRPRPGVWPRP | 0.886

Row | Sequence | shrunken log2 fold change
70 | RRIRLRPPRLPRPRPRPWPPPRP | 0.668
71 | RRIRIRPPRLPRPRPRPQHGPRP | -0.184
72 | RRIRVRPPRLPRPRPRPMNKPRP | -0.403
73 | RRIRGRPPRLPRPRPRPELDPRP | 0.807
74 | RRIRIRPPRLPRPRPRPRVLPRP | -0.24
75 | RRIRVRPPRLPRPRPRPTMTPRP | 0.11
76 | RRIRYRPPRLPRPRPRPWREPRP | 0.0494
77 | RRIRNRPPRLPRPRPRPKEEPRP | 0.0169
78 | RRIRVRPPRLPRPRPRPIMAPRP | -0.111
79 | RRIRNRPPRLPRPRPRPIWVPRP | -0.0659
80 | RRIRVRPPRLPRPRPRPTIGPRP | 0.178
81 | RRIRARPPRLPRPRPRPATQPRP | 0.437
82 | RRIRGRPPRLPRPRPRPDEGPRP | -0.001
83 | RRIRFRPPRLPRPRPRPIKQPRP | -0.0488
84 | RRIRFRPPRLPRPRPRPALYPRP | -0.155
85 | RRIRMRPPRLPRPRPRPRLMPRP | -0.0423
86 | RRIRARPPRLPRPRPRPCGGPRP | 0.425
87 | RRIRARPPRLPRPRPRPLLCPRP | 0.612
88 | RRIRSRPPRLPRPRPRPQSTPRP | -0.24
89 | RRIRTRPPRLPRPRPRPKERPRP | -0.0679
90 | RRIRFRPPRLPRPRPRPQDHPRP | -0.391
91 | RRIRIRPPRLPRPRPRPDQDPRP | -0.162
